# Reference: PMC9582721, “Hepatitis C virus nonstructural protein NS3 unfolds viral G-quadruplex RNA structures”
# B1: NONHCVG4-A20 (structured_RNA)
# RNA: AAGGGUGGGUGGGUGGGAAAAAAAAAAAAAAAAAAAA
# B2: NONHCVG4 (structured_RNA)
# RNA: AAGGGUGGGUGGGUGGGAA
# B3: HCVG4-A20 (structured_RNA)
# RNA: AAGGGCUGCGGGUGGGCAGGGAAAAAAAAAAAAAAAAAAAA
# B4: NEGG4-A20 (structured_RNA)
# RNA: AAGGGAGGGGGGGUCCUGGAGGAAAAAAAAAAAAAAAAAAAA
# B5: HCVG4 (structured_RNA)
# RNA: AAGGGCUGCGGGUGGGCAGGGAA
# B6: NEGG4 (structured_RNA)
# RNA: AAGGGAGGGGGGGUCCUGGAGGAA
# B7: A20 (ssRNA)
# RNA: AAAAAAAAAAAAAAAAAAAA
# What was measured:
# [1] = molecular target: T1, NS3 (nonstructural protein 3, protease-helicase) (Hepatitis C virus genotype 1b (con1b), UniProt Q9WMX2 1027-1657); assay: fluorescence anisotropy; 100 mM KCl; 6 nM RNA; 25 mM MOPS pH 6.5, 100 mM KCl, 0.1 mM EDTA, 2 mM beta-mercaptoethanol, 0.1 mg/ml BSA, 37 C, 30 min; RNA 2 nM unless stated, folded in 100 mM KCl; details: protein: recombinant; label: 3'-6FAM; parallel G4 with 3' overhang 20 nt
# [2] = molecular target: T1, NS3 (nonstructural protein 3, …); assay: fluorescence anisotropy; 100 mM KCl; 25 mM MOPS pH 6.5, 100 mM KCl, 0.1 mM EDTA, 2 mM beta-mercaptoethanol, 0.1 mg/ml BSA, 37 C, 30 min; RNA 2 nM unless stated, folded in 100 mM KCl; details: protein: recombinant, label: 3'-6FAM
# [3] = molecular target: T1, NS3 (nonstructural protein 3, …); assay: fluorescence anisotropy; 100 mM KCl; 5.4 nM RNA; 25 mM MOPS pH 6.5, 100 mM KCl, 0.1 mM EDTA, 2 mM beta-mercaptoethanol, 0.1 mg/ml BSA, 37 C, 30 min; RNA 2 nM unless stated, folded in 100 mM KCl; details: protein: recombinant; label: 3'-6FAM; parallel G4 with 3' overhang 20 nt
# [4] = molecular target: T1, NS3 (nonstructural protein 3, …); assay: fluorescence anisotropy; 100 mM KCl; quadratic fit; 25 mM MOPS pH 6.5, 100 mM KCl, 0.1 mM EDTA, 2 mM beta-mercaptoethanol, 0.1 mg/ml BSA, 37 C, 30 min; RNA 2 nM unless stated, folded in 100 mM KCl; details: protein: recombinant; label: 3'-6FAM; single-stranded
# [5] = molecular target: T1, NS3 (nonstructural protein 3, …); assay: fluorescence anisotropy; 100 mM KCl; same data, two-sites fit, Kd1; 25 mM MOPS pH 6.5, 100 mM KCl, 0.1 mM EDTA, 2 mM beta-mercaptoethanol, 0.1 mg/ml BSA, 37 C, 30 min; RNA 2 nM unless stated, folded in 100 mM KCl; details: protein: recombinant; label: 3'-6FAM; single-stranded
# T1 sequence (Q9WMX2 1027-1657): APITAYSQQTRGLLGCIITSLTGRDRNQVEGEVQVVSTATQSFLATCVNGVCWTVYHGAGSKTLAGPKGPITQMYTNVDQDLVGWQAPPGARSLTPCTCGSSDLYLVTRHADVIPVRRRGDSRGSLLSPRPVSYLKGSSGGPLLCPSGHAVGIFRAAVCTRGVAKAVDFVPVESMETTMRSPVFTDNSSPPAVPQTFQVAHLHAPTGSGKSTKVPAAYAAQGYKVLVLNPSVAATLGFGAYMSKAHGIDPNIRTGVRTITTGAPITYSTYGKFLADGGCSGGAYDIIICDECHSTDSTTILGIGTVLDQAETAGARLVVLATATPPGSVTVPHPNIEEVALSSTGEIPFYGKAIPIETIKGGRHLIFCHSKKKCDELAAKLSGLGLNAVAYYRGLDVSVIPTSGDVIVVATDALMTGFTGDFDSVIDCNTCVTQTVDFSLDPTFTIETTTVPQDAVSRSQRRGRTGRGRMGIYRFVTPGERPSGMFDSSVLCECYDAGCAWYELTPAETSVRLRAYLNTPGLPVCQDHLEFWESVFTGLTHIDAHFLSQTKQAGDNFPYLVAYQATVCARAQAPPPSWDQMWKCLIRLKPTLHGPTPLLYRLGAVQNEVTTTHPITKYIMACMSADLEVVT
binder,measurement,setting,value
B1,Kd,[1],12 ± 3 nM
B2,Kd,[2]; parallel G4 (three-tetrad),23 ± 7 nM
B3,Kd,[1],11 ± 3 nM
B4,Kd,[3],6 ± 2 nM
B5,Kd,[2]; parallel G4 (three-tetrad),17 ± 4 nM
B6,Kd,[2]; parallel G4 (two-tetrad),19 ± 5 nM
B7,Kd,[4],6 ± 1 nM
same,Kd,[5],4.9 nM
